# Measurements as given in publication PMC7350285.
# Assays:
# BRG1 AT-BD P1456L = BRG1 AT-BD P1456L (human, UniProt P51532 1434-1569, P1456L); assay: BLI
# BRG1 AT-BD R1502H = BRG1 AT-BD R1502H (human, UniProt P51532 1434-1569, R1502H); assay: BLI
# BRG1 AT-BD R1502H, sequence (P51532 1434-1569 R1502H): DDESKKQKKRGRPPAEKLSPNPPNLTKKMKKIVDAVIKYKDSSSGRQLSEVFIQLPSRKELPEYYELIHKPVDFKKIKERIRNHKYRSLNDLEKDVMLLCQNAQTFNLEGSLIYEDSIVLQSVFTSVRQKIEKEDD
# BRG1 AT-BD P1456L, sequence (P51532 1434-1569 P1456L): as the sequence (P51532 1434-1569 R1502H) above, with P23L, H69R counted along it
binder,measurement,setting,value
biotinylated SELEX-DNA (dsDNA) DNA 1: CCTCAATTAAATCTC DNA 2: GAGATTTAATTGAGG,Kd,BRG1 AT-BD P1456L,1.2 ± 0.1 µM
same,Kd,BRG1 AT-BD R1502H,2.4 ± 0.2 µM
